Source: the DeepSol protein solubility set

assay: soluble on expression in E. coli; label from the status in PepcDB or PDB records

**Q.** With “MSLKTLENHNRIKVTVNGREIEVYDNLTILQALLQEDIHIPHLCYDIRLERSNGNCGLCVVTLISPDGERDVKACQTPIKEGMVICTNTPKLENYRKIRLEQLLSDHNADCVAPCVMTCPANIDIQSYLRHVGNGDFEAAIRVIKERNPFPIVCGRVCPHTCESQCRRNLVDAPVAINYVKRFAADWDMARPEPWTPEKKPPTGKKIAIVGAGPSGLSAAYYSAIKGHDVTVFERQPHPGGMMRYGIPEYRLPKAILDKEIEMIKKLGVKIMTEKALGIHIRLEDLSKDFDAVYLAIGSWQATPMHIEGEKLDGVWAGINYLEQVAKNVDIPLGDNVVVIGGGNTAIDCARTALRKGAKSVKLVYRCTREEMPAAPYEVEEAIHEGVEMIFLMAPTKIIVKDGKKKLVCIRMQLGEPDRSGRRRPVPIEGSEVEIDADTIIGAIGQSTNTQFLYNDLPVKLNKWGDIEVNGKTLQTSEYNIFAGGDCVTGPATVIEGHHHHHH” as the sequence, how does the “soluble on expression in E. coli” value read?
**A.** soluble

**Q.** Which “soluble on expression in E. coli” value does the source give for “MGSDKIHHHHHHMGNTINLSRFYKACNPSYTLNMGVMLDRQYYIDFANVRGCKIVEELQRTISRISPDEPTCQLFTGHIGCGKSTELQRLKTELETAGFHVVYFESSQDLDMADIDVSDILLSVARQVCVSLEAIGIKLKPGYFNNLFKEIGDFLQAPIELSGEAEFSLGIAKITAKTKDSTQLRNQLRQYLEPRTNNILQAINEEILEKAVEQLKRRGQKGLVVIVDNLDRVDMRPVASGRTQPEYLFIDRGEQLRRLKCHVVYTIPLALIFSSEYETLKNRLGGGIAPKVLPMVLVRQRDGSDYEPGMSLLRQLVLARAFPEVASQERQQLITELFEQTETLDRLCRVSGGHIRNLLGLLYSCLQRQDPPFSRDCLEAVIKDYRDDLLLAIDECQWELLFDVMQQQSVKGESDYQSLLRSMYLFEYRDPVGRWFGISPALAETEKVLAWRESK” here?
**A.** not soluble

**Q.** With “MGSDKIHHHHHHMLQLTQVRIWVITFKSYLRMNKNMIKGMIVFATIAEKGSMSAAAQQLNLSSSAVSQQVTKLEMDMGISLFHRNTRNLTLTEAGSLFYENCRKVISIVDSTEQKLNNLKGIPSGELKIAAPVGFGGGLLSEPFQYLLATHPQISLNLVMQDGPIDIVNDGIDLAICIGPLSDSNLIARHLADWRMLLCTSPDYLPMHHNIKHPSELAAFNRINHNYTKGELLTHHPSLECFELTGQRISVNNMQTLIQLTLDGLGYAALPEPEVLDYLDKGVLVPLLPEWSFNTYSVYSVTSARDRQPAKVKEALNALSQYFSQTDFNHADQLKGGSYQTEHIKSGKEHRLGT” as the sequence, how does the “soluble on expression in E. coli” value read?
**A.** not soluble

**Q.** Which “soluble on expression in E. coli” value does the source give for “MGSSHHHHHHSSENLYFQGHMLANNNKRSKLSTVPSSRPIRVGFVGLTSGKSWVAKTHFLAIQQLSSQFQIVALYNPTLKSSLQTIEQLQLKHATGFDSLESFAQYKDIDMIVVSVKVPEHYEVVKNILEHSSQNLNLRYLYVEWALAASVQQAEELYSISQQRANLQTIICLQGRKSPYIVRAKELISEGCIGDINSIEISGNGGWYGYERPMRSPEYLYDIESGVNLISNSFGHTIDVLQYITGSYFQKINAMISNNIPTQFLLDENGKRTKETISKTCPDHLLFQGILENGKVPVSCSFKGGTPVKKLTKNLVIDIHGTKGDLKIEGDAGFVEISNLVLYFYGIKNGNGSSNGTDNNGAAAIKDKEKVTKSPSPSTGTSEEEQTMEVFHLRNYNSVVGNILRIYESIADYHFLGKPESKSSRGPDDLFASTKFDKQGFRFEGFPTFKDAIILHRLIDAVFRSDKEEKTLDVSKIMI” here?
**A.** soluble

**Q.** With “MGSDKIHHHHHHMYEDYYRFSAKPFQLNPDPRFFYGSKGHKRAMAYLDYGLSLGEGFIVITGEVGAGKTTLVRNLFRQLEAHNLVAAQLVSTQLDAEDTLRSVAASFGLEHEGLTKSALLKNLESFLAAAARQGKRALLVVDEAQNLTPRAVEELRMLSNFQNDERSLIQTFLLGQPEFRGILQSPDMQQLRQRVVASYHLGPLDADETRGYIEHRLRTVGWQGMPGFDDDAFAALHRFSGGIPRRLNTTCDRLLLFGFLEEKRHFGEAEVDEVIADLRSEVAHQDFDRGAKPDARAADAFYAEDGGRLAQRIEQLERSVNRILPIVRKILYTVSEREAANDDTPQGPHDPAR” as the sequence, how does the “soluble on expression in E. coli” value read?
**A.** not soluble

**Q.** Which “soluble on expression in E. coli” value does the source give for “MSLESSQSLELLKNKIEQYALNELSNYTEGKIQVTADNIDPRLNLKVCNDNKLEVFNPYQTPMLNTSTMGIKCLEENNHWTLYIPVKITIFKSVLVAKRALLKGTKISNSDIYQTELDVQKLKQGYFTDSKELIGLVCKHDITPNSPLNPFNIELAKLVHKGEQVSIIAAHDNLTVSMDGVAMDEGALGDSVKVKNLSSKRIIEAQVTGKKTVKVTFEGHHHHHH” here?
**A.** soluble

**Q.** Which “soluble on expression in E. coli” value does the source give for “MSLSAYAELHCLSNFSFQRGASSAAELFQRAKALGYQALAITDECTLAGIVRAWQASRDTGLKLIVGSEMQVEDGPRLVLLVEDLAGYQGLCRLITRARRRAEKGSYRLLREDFAEPLPGLLALWLTGAGEPLAQGRWLQQVFPQRLWLALELHCGQDDARHLQQQLALARQLGLPAVACGDVHMHVRGRRALQDTMTAIRHHLPVAEAGQRLFANGERHLRPVEVLQGLYPQALLDESLAIAGRCAFDLGQLRYQYPRELVPEGHDAGSWLRVLTQRGIVRRWPTGARAEVLKQIDKELTLICDLGYESYFLTVHDIVDFARRQHILCQGRGSAANSVVCFALGITEIDPDRSTLLFERFLSRERNEPPDIDVDFEHERREEVLQYLFQRYGRHRAALTAVVSTYHGAGAVRDVAKALGLPPDQVNALADCCGHWSDTPPSVERLQEAGFDPQSPVLRRVLSLTGQLIGFPRHLSQHPGGFVISEQPLDHLVPVENATMAERTVIQWDKDDLDMVGLLKVDILALGMLSAIRRCFDLIHGYRGQRYSLASIPPEDPATYEMIGRADTIGVFQIESRAQMSMLPRLKPQNFYDLVIEVAIVRPGPIQGGMVHPYLRRRNRQEPETYPSPELEGVLKRTLGVPLFQEQVMQIAIVAADYTPGEADQLRRSMAAWKRHGGLEPHRERLRRGMNRNGYSDEFATQIFEQIKGFGSYGFPESHAASFALLTYASCWLKCHEPAAFACALINSWPMGFYSPDQILQDARRHGLQVLAVDVGASDWDCSLEPIPVQPARAGNGPPGQPALRLGLRMIKGFREDDARRIERARRQRAFVDIADLGERARLDVRAQELLADAGALQALAGDRYRARWEVAGVERQLGLFAEGHHHHHH” here?
**A.** soluble

**Q.** Which “soluble on expression in E. coli” value does the source give for “MGSDKIHHHHHHMSQFVVDSSFWSLFPDAKIGVLLLKDYKTPAQSPDELVKLLEESNGIAQKFLTEDTFSENEVIRTYRQAYQKFKTKKGARSSIEALLKRSTSDRPVTTISPLVDIYNAASLRFGLPCGAEDLDTFVGNLQLTVTEGGDEFYLIGDETNNPTLPGEVCYKDDKGAVCRCFNWRDGERTMITDETKNAFLVMELVNSDRVEDLENALDFISQQAETFLGVVPEKYLLDCDRPGIAL” here?
**A.** not soluble

**Q.** For “QDSTQNLIPAPPLISVPLQPGFWTERFQGRWFVVGLAGNAVQKERQSRFTMYSTIYELQEDNSYNVTSILVRGQGCRYWIRTFVPSSRPGQFTLGNIHSYPQIQSYDVQVADTDYDQFAMVFFQKTSENKQYFKVTLYGRTKGLSDELKERFVSFAKSLGLKDNNIVFSVPTDQCIDN”, which “soluble on expression in E. coli” value is on record?
**A.** soluble

**Q.** With “MDHLKHLQQLQNIERIVLSGIVLANHKIEEVHSVLEPSDFYYPPNGLFFEIALKLHEEDCPIDENFIRQKMPKDKQIKEEDLVAIFAASPIDNIEAYVEEIKNASIKRKLFGLANTIREQAHH” as the sequence, how does the “soluble on expression in E. coli” value read?
**A.** soluble

**Q.** Which “soluble on expression in E. coli” value does the source give for “MLKGGEDVVQGTHVRELTPEWVARAVGGRLHPGGGPVRDLVWHSGAATPGSLFAVLPGRTTHGRHFIPEALARGASLVLADQAGPATLEVEDPWQALLRLGEALRRLFPGPVLAVGGSSGKTTTKEALAQGLGLPAPPGNLNTAPPLVRFFWHLDPQSPGAVVELGVDRQGEMAELFALAKPHLAVLTALGEEHLEAFGTLEKAVQEEAHLLRAPTALVGEQAAPLVLGLREDLLVYGFAEGTFRGRDLELGLRESRFRYGGLHVRVPYPGLGPAYGALAALAAAEVLGLSLEEVAERLARLTLPPGRMETREVGGVVFVNDAYNANPLSVKAGLRWLAAQPGRKWAVLGEMRELGRESLRLHLEVAEEAARLGLSPLYLGPHARHQAAFSGEAVESLEEALAWLKARVAPGDLVYLKASRAVGLERIVELWDAPFSS” here?
**A.** soluble

**Q.** Which “soluble on expression in E. coli” value does the source give for “MWFRNLLVYRLTQDLQLDADSLEKALGEKSARPCASQELTTYGFTAPFGKGPDAPLVHVSQDFFLISARKEERILPGSVVRDALKEKVDEIEAQQMRKVYKKERDQLKDEIVQTLLPRAFIRRSSTFAAIAPSLGLILVDSASAKKAEDLLSTLREALGSLPVRPLSVKVAPTATLTDWVKTQEAAGDFHVLDECELRDTHEDGGVVRCKRQDLTSEEIQLHLTAGKLVTQLSLAWSDKLSFVLDDKLAVKRLRFEDLLQEQAEKDGGEDALGQLDASFTLMMLTFAEFLPALFEALGGEEIPQGV” here?
**A.** soluble

**Q.** Which “soluble on expression in E. coli” value does the source give for “GPGSMPLTAAGMRTLMRQMQEVQEHPVDGVQVRPSDSMNEYHFDVDGPEGTPFAAGRFHVVLIFDEQYPEVPPKGFFRTKIFHPNISERGDICVNTLKRDWSPMLGLRHILVVIRCLLIEPNPESALNEEAGRLILEEYAAYERKAAMYTAINAARPNGVPRFTLPEVKAEKASGSVTACASAGAAADSGASATAAAAAASASSMANGGAPSTATRGLTLSEANCHPGSATAAEKAEKSKKKALRRI” here?
**A.** soluble

**Q.** Which “soluble on expression in E. coli” value does the source give for “MDVLNAANDLLPLLPEVQDALSEDFDGVECSMGAGVVLEQAPFRMAFPHMGRQVTFVPDTSCLEEFDGAKLHRINLGPKSAVFTDGEPGCCMELILGAGKDWKTPLVKLFSRVYPNKWAFFITELESGQATYHILSSSHGMLSSARREDTPDSTEQSSMVSSPTASVSDATNYSLWIVPVTKVFAIPAPKKVKVVRKVIKKRTPVDGSTNGTNGTSVVNGNGTMNGHVSPEDGERKVRLVKKKPPTEKLESSTEREISPLNDLPKPEFSTIASSESMKTVINGKSEREEAGPSNDSSDGGSASELRKKLTEKIMEQKFMVNGEQRALNGNASSRGLGRSISRSSMTPDRRLDPILEDGSKQRQAIASAISVNRPSITRNSATPPMTPHSKLALEMLFKLDKLWKYFKFIYSKCRYTFIQFFNSTFSNTKIYSVEIMDAEVIKVLVSHPSKPNIPVMVLQLVLTKCLNYEHLGRLREVHPHWDEIAGQLLNSGYYKLLERSDKLLMTLQRKVVSDPGLHYATSVLTNIQMHILNPVDIMRAVLDEGVCCFPYGVILDKTFILLDKVEAMLHGSYEEDVHWEPVAKLAKKAASHYRGNLERVMEERMGENLRLKAAQRIIRLESFVVDAQVAKLEKESNKAKEDVRWEIDQLHQKNSQLRKDNREMKANQMRLEARVEALEQKFKTLARLLS” here?
**A.** not soluble

**Q.** With “MGSDKIHHHHHHMFKTAVGHSNDPDSLSAIEEVLQQCVSSLGGDIPKAGILFSAIDFEHALILQQIHQFFPGIELIGGTTDGEISSVLEFQQDSITLMLFCSDEVEINAGVGRKVSVDPIAVTKQAVEQAKAKTTETPRLCLTHPESLTISGVSILHGLKLALGQNVPIFGGLAGDQSRYQNTYQFFQTEVLSDSVPILLFSGTILFSHGVASGWHPIGQISQVTKVDKNILYEIDGKPALDFYHHYLGLLPPSMEYPLAVFDQNRDNFYIRAPIAYNQDSGSITFFADIPDRAVIQIAEACYEDILAASKASFMNALNNYPGAEPSAVLFFSCVARRQILGTRAKEEYQNTKLCLTYHLPGCGFYSYGEIAPIDGMSQTQFHNETFVTLILGTR” as the sequence, how does the “soluble on expression in E. coli” value read?
**A.** not soluble

**Q.** Which “soluble on expression in E. coli” value does the source give for “MYKIGIDVGGTNTDAVILDHQLNLIHSVKVPTTDDIQTGIAGALNKVLAESAVDPTKVTHAMLGTTQCTNAIVERKKLAKVGVLRLGYPATASVLPYTAWPKDLVATLSETYALAHGGYEYDGQPLTALDEEELRGILASWRGEVEAIAVIGVFSSLKNDQELFVQALAKEVL” here?
**A.** not soluble
